Target: recombinant full-length human PrP^C (AA23-231) (human) (UniProt P04156)

“Poly-d-glutamic acid sodium salt (peptide)” was tested, and the IC50 was greater than 1000 nM.
